Experimental data reported in paper PMC13214397, “De novo biosynthesis of alpinetin enhanced by directed evolution of 5-O-methyltransferase” (Microbial Cell Factories, 2026).

Columns and labels:
[1] = substrate: O=C1C[C@@H](c2ccccc2)Oc2cc(O)cc(O)c21; experiment: initial rates of alpinetin formation by HPLC, Michaelis-Menten fit; assay type: biochemical, Streptomyces avermitilis; details: 2 mM SAM (fixed), 2 mM Mg2+, 50 uM enzyme, Tris-HCl pH 7.5, 37 °C, apparent initial velocities
Description: initial rates of alpinetin formation by HPLC, Michaelis-Menten fit on StrAOMT | we performed steady-state kinetic assays for StrAOMT wild-type and StrAOMT I41L/R171W/K212R

[2] = substrate: O=C1C[C@@H](c2ccccc2)Oc2cc(O)cc(O)c21; experiment: as above; assay type: biochemical, Streptomyces avermitilis; details: 2 mM SAM (fixed), 2 mM Mg2+, 50 uM enzyme, Tris-HCl pH 7.5, 37 °C, apparent initial velocities; remark: listed apart in the source
Description: initial rates of alpinetin formation by HPLC, Michaelis-Menten fit on StrAOMT | KM of StrAOMT wild type is twice that of the StrAOMT triple mutant

| Protein | Km [1] [µM] | kcat [1] [s⁻¹] | Km [2] [µM] | kcat [2] [s⁻¹] |
| --- | --- | --- | --- | --- |
| StrAOMT (Streptomyces avermitilis MA-4680 = NBRC 14893) (protein, recombinant from pET21b in E. coli BL21(DE3), codon-optimized) MSESQQLWDDVDDYFTTLLAPEDEALTAALRDSDAAGLPHINVAPNQGKLLQLLAEIQGARRILEIGTLGGYSTIWLGRALPRDGRLISFEYDAKHAEVARRNLARAGLDGISEVRVGPALESLPKLADERPEPFDLVFIDADKVNNPHYVEWALKLTRPGSLIVVDNVVRGGGVTDAGSTDPSVRGTRSALELIAEHPKLSGTAVQTVGSKGYDGFALARVLP | 313.2 | 2.83e-05 | – | – |
| StrAOMT (Streptomyces avermitilis MA-4680 = NBRC 14893; I41L/K212R/R171W) (protein, recombinant from pET21b in E. coli BL21(DE3), codon-optimized) MSESQQLWDDVDDYFTTLLAPEDEALTAALRDSDAAGLPHLNVAPNQGKLLQLLAEIQGARRILEIGTLGGYSTIWLGRALPRDGRLISFEYDAKHAEVARRNLARAGLDGISEVRVGPALESLPKLADERPEPFDLVFIDADKVNNPHYVEWALKLTRPGSLIVVDNVVWGGGVTDAGSTDPSVRGTRSALELIAEHPKLSGTAVQTVGSRGYDGFALARVLP | – | – | 156.4 | 9.33e-05 |
